Publication PMC7141136, “Ohr and OhrR Are Critical for Organic Peroxide Resistance and Symbiosis in Azorhizobium caulinodans ORS571”
Changes are numbered by the printed parent chain.

What was measured:
Conditions in all cases: protein: recombinant; tags: N-terminal 6xHis (pET-28a); chain copies: 2; label: none (GelRed stain)
OhrR C11S = molecular target: T1, OhrR C11S (Azorhizobium caulinodans ORS571, UniProt A8IEZ4 1-144, C11S); test: EMSA; reducing; 50 mM Tris-HCl pH 8.3, 0.25 M KCl, 2.5 mM DTT, 5 mM MgCl2, 0.05 ug/mL poly(dI-dC), 2.5 mM EDTA, 1% glycerol; 20 nM DNA, 20 uL, 20 min, room temperature; 6% native PAGE in 0.5x TBE
T1 sequence: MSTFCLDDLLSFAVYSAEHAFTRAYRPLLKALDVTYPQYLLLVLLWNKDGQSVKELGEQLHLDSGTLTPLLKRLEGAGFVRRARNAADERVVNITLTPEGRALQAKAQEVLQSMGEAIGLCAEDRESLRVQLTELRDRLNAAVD

OhrR C121S = molecular target: T2, OhrR C121S (Azorhizobium caulinodans ORS571, UniProt A8IEZ4 1-144, C121S); test: as above
T2 sequence: T1 sequence with S11C, C121S

OhrR C11S C121S = molecular target: T3, OhrR C11S C121S (Azorhizobium caulinodans ORS571, UniProt A8IEZ4 1-144, C11S;C121S); test: EMSA; CuOOH; binding not affected; 50 mM Tris-HCl pH 8.3, 0.25 M KCl, 2.5 mM DTT, 5 mM MgCl2, 0.05 ug/mL poly(dI-dC), 2.5 mM EDTA, 1% glycerol; 20 nM DNA, 20 uL, 20 min, room temperature; 6% native PAGE in 0.5x TBE
T3 sequence: T1 sequence with C121S

Measured: binding result

B1: ohr promoter probe (181 bp) (dsDNA)
DNA 1: CAAAGGGTTAGTTTTCCGTTGCGGAAGGTTGGGTGATGTTGACGGTGGTCTGCAAAATAAGTTTGACACAATCAAATTGTGTGCTACTTAAATGGCCATGGAAGCGGCTTGGCCGTTTCTCATCGATTTCTCAAGGCACGAGGATCAAGCGATGTCCGTCGATGTGAAGTACACCACCAAG
DNA 2: CTTGGTGGTGTACTTCACATCGACGGACATCGCTTGATCCTCGTGCCTTGAGAAATCGATGAGAAACGGCCAAGCCGCTTCCATGGCCATTTAAGTAGCACACAATTTGATTGTGTCAAACTTATTTTGCAGACCACCGTCAACATCACCCAACCTTCCGCAACGGAAAACTAACCCTTTG
binds: all assays above
